What was measured:
[1] = Testing of peptide solubility; type: physicochemical; settings: 8M Urea, final concentration 1.1 mg/ml (first solubility table, headed TABLE 1)
Protocol: Testing of peptide solubility: Data for peptide solubility are represented in Table 1 and 2. Peptides SEQ ID 5-21 was dissolved in 8M Urea to a final concentration of 1.1 mg/ml.

[2] = tested on: BALB/c female mouse; experiment: Immune response to individual peptide: immunization of mice, indirect solid-phase immunoenzymatic assay of antiserum (A450); type: in vivo; settings: for OD 450 Mean values (n = 3-5) for dilution 1:10,000: antiserum of mice immunized i.p. with 100 μg peptide+Str-HRP, day 38 bleed, serum dilution 1:10,000; for immune response: comparison among the 17 peptides
Protocol: Peptides were dissolved in appropriate volume 8M Urea and additional solution. Final concentration of peptide-Str-HRP solution was 0.8 mg/ml and 0.6 mg/ml for peptide and Str-HRP, respectively. After dissolving, 4 aliquotes in 0.2 ml portions were taken from each peptide solution, mixed with 0.6 ml Str-HRP and incubated over night at +4° C. Conjugate peptide with carrier protein (Str-HRP) was frozen and stored at −20° C. until further use. Final concentration of urea in peptide-Str-HRP solution was 2M for all peptides.
Day 0: Immunization with complete Freund's adjuvant Day 7: Booster with incomplete Freund's adjuvant Day 14: Booster with incomplete Freund's adjuvant Day 28: Booster with incomplete Freund's adjuvant Day 38: Terminal bleed
Method of Immunization: Frozen 0.8 ml aliquotes of peptide+Str-HRP conjugate were thawed at room temperature (RT) and mixed with 0.8 ml of appropriate adjuvant. Adjuvant was added and mixed by vortexing immediately before injections were given. Immunization was done by using intra peritoneal injections with 100 μg peptide per animal in final volume 250 μl of 1:1 (v:v) peptide+Str-HRP:adjuvant. Five animals were used per peptide.
Preparation of serum: At 38 days, the mouse was bled. Blood was collected in 2-ml microcentrifuge tube and the blood was allowed to clot at room temperature for 1 hour. Centrifugation using the microcentrifuge tube with the clot inside was done for 15 min at 2500 g and serum was collected. Volume for each sample was no less than 400 μl. The serum was stored at −20° C.
Testing immune response to individual peptide: Determination of mouse antibodies to peptide based on indirect solid-phase immunoenzymatic assay with avidin on solid-phase was performed. Materials used were 96-well polystyrene plates high binding (#9018 Costar, USA), all solution for ELISA: sample diluent (10 mM sodium phosphate, 500 mM NaCl, 0.5% BSA, 0.05% Tween-20, pH 7.4), conjugate diluent (10 mM sodium phosphate, 150 mM NaCl, 0.5% BSA, 0.05% Tween-20, pH 7.4), wash fluid (10 mM sodium phosphate, 300 mM NaCl, 0.05% Tween-20, pH 7.4), substrate buffer (50 mM sodium citrate and hydrogen peroxide, pH 5.0), TMB solution (3,3′,5,5′-tetramethylbenzidine), stop solution (2M sulphuric acid) were taken from EIA Kit for detection of antibody to HIV “Peptoscreen-2” (Amercard Ltd, Russia), conjugate of rabbit antibody to mouse IgG with HRPO (custom made), avidin from egg white (Imtek, Russia). Negative controls of 5 sera were pooled from the nonimmune BALB/c female mouse. Dispensing of solutions with Finnpipette digital adjustable volume pipettes 0.5-10 μl, 5-40 μl, 20-200 μl, 200-1000 μl, 1-5 ml and 12-channel pipettes 5-50 μl, 50-200 μl. Plate washer ZLE201 (Amersham Inc., UK), incubator at 37° C.—Imperial II (Lab-Line Instruments Inc., USA), EIA plate reader—Luminometer-Photometer LM01A (Immunotech, Beckman Coulter Company, USA).
Test procedure: Peptides for binding on the avidin-coated plate were taken from test-solution for determining the solubility of peptides (chapter 1.3., table 1 and 2) and were dissolved up to 2 mM in sample diluents immediately before the test procedure as shown in Table 3.
EIA plates were coated by adding to a well containing 100 μl of avidin dissolved 10 μg/ml in 50 mM carbonate buffer, pH 9.5 and incubated for 20 h at 20° C. The plates were washed 4 times with wash fluid. Peptides 2 mM, […] in sample diluent and incubated 60 min at 37° C. Control wells contain avidin. The plates were washed 4 times with wash fluid. Serum from each mouse and negative control were diluted 1:100, 1:1000 and 1:10000 in sample diluents and were added to the wells, coated by the corresponding peptide (100 μl per well) and incubated for 1 h at 37° C. The plates were washed 4 times with wash fluid. Conjugates of rabbit anti-mouse IgG antibody with HRPO (dilution of 1:3000 in conjugate diluent) were added to the wells (100 μl per well). The plates were incubated for 0.5 h at 37° C. […]

[3] = Testing of peptide solubility; type: physicochemical
[4] = 8M Urea, larger weights (TABLE 2), no additional solution

Row | Substance | Solubility [1] | OD 450 Mean values (n = 3-5) for dilution 1:10,000 [2] | Solubility [3, 4] | immune response [2] | Solubility ([3]; 8M Urea plus equal volume 0.1M Na-carbonate buffer, pH 9.5 (TABLE 2))
1 | SEQ ID 8: Carp MMP-9 synthetic oligopeptide, sequence DKDKIFGF | Soluble | 0.097 | Soluble |  | 
2 | SEQ ID 14: European Carp MMP-9 synthetic oligopeptide, sequence CHFPFLFEGTSYSSC | Soluble | 0.394 | Soluble |  | 
3 | SEQ ID 10: Rabbit MMP-9 synthetic oligopeptide, sequence DTDRRFGF | Soluble |  | Soluble |  | 
4 | SEQ ID 20: Carp MMP-9 synthetic oligopeptide, sequence DKKYGFCPNRDTAVI | Soluble | 0.138 | Soluble |  | 
5 | SEQ ID 15: Pufferfish MMP-9 synthetic oligopeptide, sequence CHFPFRFQNKPYKHC | Soluble |  | Soluble | most active | 
6 | SEQ ID 9: Pufferfish MMP-9 synthetic oligopeptide, sequence DKDKKYGF | Soluble | 0.131 | Soluble |  | 
7 | SEQ ID 12: Rat MMP-9 synthetic oligopeptide, sequence CHFPFTFEGRSYLSC | Insoluble | 0.661 |  |  | Soluble
8 | SEQ ID 19: Mouse MMP-9 synthetic oligopeptide, sequence DQDKLYGFCPTRVDA (printed identical to SEQ ID 17) | Soluble | 0.818 | Soluble |  | 
9 | SEQ ID 6: Bovine MMP-9 synthetic oligopeptide, sequence DADRQFGF | Soluble | 0.096 | Soluble |  | 
10 | SEQ ID 18: Rat MMP-9 synthetic oligopeptide, sequence DKADGFCPTRADVTV | Soluble | 0.138 | Soluble |  | 
11 | SEQ ID 5: Mouse MMP-9 synthetic oligopeptide, sequence DKDGKFGF | Soluble | 0.845 | Soluble |  | 
12 | SEQ ID 21: Rabbit MMP-9 synthetic oligopeptide, sequence DKDKLYGFCPTRADS | Soluble | 0.411 | Soluble |  | 
13 | SEQ ID 17: Bovine MMP-9 synthetic oligopeptide, sequence DQDKLYGFCPTRVDA | Soluble | 0.780 | Soluble |  | 
14 | SEQ ID 11: Mouse MMP-9 synthetic oligopeptide, sequence DKDGKFGF (printed identical to SEQ ID 5) | Soluble | 0.183 | Soluble |  | 
15 | SEQ ID 13: Chicken MMP-9 synthetic oligopeptide, sequence CHFPFIFEGRSYSRC | Soluble |  | Soluble | most active | 
16 | H-RILAVERYLKDQQLLGIWGCSGKLICTTAVPWNAS-OH (cysteine pairing not given here) [SP35, reference compound] |  |  | Soluble |  | 
17 | SEQ ID 16: Flounder MMP-9 synthetic oligopeptide, sequence CHFPFTFEGKSYTSC | Soluble | 0.823 | Soluble |  | 
18 | SEQ ID 7: Rat MMP-9 synthetic oligopeptide, sequence DTDRKYGF | Soluble | 1.610 | Soluble |  | 

Reference: US20140017267A1, “METALLOPROTEINASE OLIGOPEPTIDES AND THEIR THERAPEUTIC USE” (priority 2012, published 2014)
